Experimental data taken from the DeepSol protein solubility set.

Test: soluble on expression in E. coli; label from the status in PepcDB or PDB records

## GQQINIHKPPIPERVQTIQGQVLFTKDDIVHGQQVWQSIGGQQIGSVWGHGSYVAPDWTADWLHREATIMLDSWAQEQGHEHYSDLPAEQQAALKERLKKTMRSNTYDAQTGTITLDDLRVDAMRSNAQYYSELFRDGHEHYAIPQNALNDKAAADDMTAFFWWTSWSASTNAPDSDISYTQNWPHEPLIDNAPPTGNI
  soluble on expression in E. coli: not soluble

## SLAAVQVVGSWPSVQPREAPREAIPERGNGFRLLSARLCALRPDDSSSARTEIHLLFDQLISENYSEGSGVAPEDVSALLVQACRLVPLNQNHLVSKVSQLIHHLLNRLQVIVDEQHLDFLLAYTISAIHQCSSWTHREILQALAALVYCNGSKCQKYLPELLGNTGLLMKLSDLAQSDPEVRRAAVHCMANLCLSVPGQPYLEEPYQNVCFQAFLTILQSPKSSDMDDITFCMLLQNALKGIQSLLNGGRMKLTQTDELGALLAVLKKFMFHGLPGLNIEMPTVLYPTPLPQYDGRTPIK
  soluble on expression in E. coli: soluble

## MSLELPILPTSVIGSYPKPRWLLRMYKLRELGKIPEEDFKEAVRDASISVLREHERAGIDIPWDGEMGRSEMTEYFTSKIKGFKFYGPVRVWGNAYFNKAAAVDKLEYEEPLVLDEFLWVKENTTREIVKIPITGPYTIAEWSFNEYYPDKESFVMDLAEIINKELKVLEKHGAKFVQLDEPAMLNHPSEVPLAVDAINRAVKGIKMKVGLHVCYSNYNLLADYFDEIKVTQFALEFANRNFRDMDFLKKLSNKELGFGVVDVHNPRVESVEEIRQAIKKVFTYLEPEWVYINPDCGLKLLDRKIAYQKLVNMVQAVRGVRKELEKEGKTTIEFRTLKDIEGHHHHHH
  soluble on expression in E. coli: soluble

## GMLFESINTGCLDGNDTPWMPFAPYSNDVMVKYFKIDPVRGETITLLKAPAGMEMPRHHHTGTVIVYTVQGSWRYKEHDWVAHAGSVVYETASTRHTPQSAYAEGPDIITFNIVAGELLYLDDKDNIIAVENWKTSMDRYLNYCKAHGIRPKDLSTFEG
  soluble on expression in E. coli: soluble

## MSLSTVTMILGQSGTGKSTSLRNLDPSQTLLIQAIKKPLPFKSGNWKPANKENPAGSIFVCDSAATIVGAMKRTKRPVIVIDDFQYVMANEFMRRSAEKGFDKFTEIGRNAWDILVEAARLPDEVRVYVLSHVETTDDGRTKIKTIGRMLDEKITLEGMVSIVLKTVVQDGQHFFATRNNGSDTVKTPMGMFDADLIENDLAAVDTAIYQYYGLTEAEGHHHHHH
  soluble on expression in E. coli: not soluble

## KSDSENIKDVKLQLNYAYEIIPVDYTNCNIDYLTTHDFYIDISSYKKKNFSVDSEVESYITTKFTKNQKVNIFGLPYIFTRYDVYYIYGGVTPSVNSNSENSKIVGNLLIDGVQQKTLINPIKIDKPIFTIQEFDFKIRQYLMQTYKIYDPNSPYIKGQLEIAINGNKHESFNLYDATSSSTRSDIFKKYKDNKTINMKDFSHFDIYLWTK
  soluble on expression in E. coli: soluble

## MGSDKIHHHHHHMRLTIHHTTRYRFDEPVSFGLQQLRKTPKTNTNQQVVEWQTRIIGGQKEVSFDDHHHNVTELISFEPGVTELELVSEGVVELTDTHGVVGRHRGPSPLWLYARPTVLTEARAGVRELIRDLDDSNPVDMLHQLSARIREAITYQIGVSELGWSAEDAIQSAHGVCQDHAHVFIACARKLGLPARYVSGYLMLDDRTTQDAMHAWAEAHVEGLGWVGFDVSNGISPDARYVRVATGLDYSDAAPVSGTRIGGAGEALDVQIEVAQQ
  soluble on expression in E. coli: not soluble

## MENRPVNIVLPKIENPILIEGYPGIGLVGHIAANFLAKELKMEVIGYVESSFIPPMSLILEGKPNPPLRFYGKDNIIIAVADIYLPPTLINEIAKEIANYLEQNKAEKVISLGGMGIGIFKDKFEVWGVGGTEEENKELQDLGVKILEYGSISGMSGKLLWEASRRGLKSYVILGETFGDRPDPRAAANVVEVLDRMLTLNVSVEPLLKEAEMIEEQLRKMHEQMEKARRSVEKQYETMYL
  soluble on expression in E. coli: soluble

## MWPPQGVPMSTPGSSAGHMPLGAGAASFPGQMNGPPQHPGMQYSGQMQQLPYGQMEGNHAMYDQRIMGQRAAGRPGMMPDYPQMPMGQTPGNTMMRMPVQYPSGPSQMAGHPHMQQMQYGHMMRAPPVSVYGQMNNAQQYAVTAHPNPVPQPYYHPEVRQLYETTAGYIVDRELLAEGHVTPGSNGVEAMLTHDASDFLKVSPQTDVLFSIWPVTKSNDPNIQYEVYINQKSVMNSHMQVKSIFIKDFLISGMNSIHIVYNGPQQMYKYACEFVTRKSVIELRKILIQKRVIEGQQLATQQKQQYMQMANKRQAGFYPVSLNCVLSKKRMFTPAKHHECKKIFDLAQLINANKGMTRYFCQTCNAYFKFEDITADYFLLNFLQSIPAGVNDLIVEKTGVVRSGDVEDVKPKRGKKKTDNDANGNGIKRIKSEIIVKQETFTDMHGRNVPFSPMPMPGSVPPDWTRLQSPSFSMQSPNKVQLGPATPATPGMVFQNPASAGSMLNMSSPRQTMIPGMHPMMPPHDVTMRSGSAPYTPESVKNDKNDELLMHIEGLYVCDVPILENEQLTVRYMDGTKDLCFEDSMVYEFAESPKHQQQIDGPPQTLMAPGSTASSSGSTFTPPFDDIHLGNRPSH
  soluble on expression in E. coli: not soluble

## MKALLPGLYLLPVPIPYPLKTVNLYLLQGAGEVALVDTALGTRAARGALELHLAELGLCFQDVKTILLTHHHPDHYGLSGFFEGLGARVFLHEEEFARGHRFWREPEAFAEASWRLFLDHGTPEGALQGIRETVEKTRERVHPPQNPLPLRDGEALEVAGKRLRVLWTPGHADGHAAFYLEEEGVLLAGDALLEKVSPNVGLWAYTRENPLKDFLRSLDRLADLGARVAYAGHFGPIADVRQRAEELKAHHQARLEALLALLDGPKTAWELSLHLFPQELDPAGRRFAFAETLAHLEYLREEGAVGRGGPPYRYFRR
  soluble on expression in E. coli: soluble

## MSLIGEILPLSHIVLDMEVGSKKRLFEEAGLLLERESSLSHADVFECLFAREKLGSTGLGQGVAIPHGRHAGVKQATGAFIRTREPVGFDAPDGKPVSLIFILLVPENATGEHLEVLSKLAGKFSQKSIRESLMTVSSAEEVRAILTEE
  soluble on expression in E. coli: soluble

## MEGESVKLSSQTLIQAGDDEKNQRTITVNPAHMGKAFKVMNELRSKQLLCDVMIVAEDVEIEAHRVVLAACSPYFCAMFTGDMSESKAKKIEIKDVDGQTLSKLIDYIYTAEIEVTEENVQVLLPAASLLQLMDVRQNCCDFLQSQLHPTNCLGIRAFADVHTCTDLLQQANAYAEQHFPEVMLGEEFLSLSLDQVCSLISSDKLTVSSEEKVFEAVISWINYEKETRLEHMAKLMEHVRLPLLPRDYLVQTVEEEALIKNNNTCKDFLIEAMKYHLLPLDQRLLIKNPRTKPRTPVSLPK
  soluble on expression in E. coli: soluble

## MAKYTREDIEKLVKEENVKYIRLQFTDILGTIKNVEIPVSQLGKALDNKVMFDGSSIEGFVRIEESDMYLYPDLNTFVIFPWTAEKGKVARFICDIYNPDGTPFEGDPRNNLKRILKEMEDLGFSDFNLGPEPEFFLFKLDEKGEPTLELNDKGGYFDLAPTDLGENCRRDIVLELEEMGFEIEASHHEVAPGQHEIDFKYAGAVRSCDDIQTFKLVVKTIARKHGLHATFMPKPLFGVNGSGMHCNLSLFKNGVNAFFDENADLQLSETAKHFIAGIVKHATSFTAVTNPTVNSYKRLVPGYEAPCYVAWSAQNRSPLIRIPASRGISTRVEVRSVDPAANPYLALSVLLAAGLDGIKNKLEAPAPIDRNIYVMSKEERMENGIVDLPATLAEALEEFKSNEVMVKALGEHLFEHFIEAKEIEWDMFRTQVHPWEREQYMSQY
  soluble on expression in E. coli: not soluble

## ENPRNVGSLDKTSKNVGTGLVGAPACGDVMKLQIQVDEKGKIVDARFKTFGCGSAIASSSLATEWVKGKTVEEALTIKNTDIAKELCLPPVKLHCSMLAEDAIKAALADYKLKQESK
  soluble on expression in E. coli: soluble

## MSISTEQTILTQLKTIRTKRASTTGEQKWLQQHITEANLRRLLPDISIVGLHLLSELEAGPQTGIDLATNLGVTRGGVTRAAKRLVTQGLIGSFQQPDDHKKIFYRLTPSGRKLARYHDKMHATRNHQAITLLHEHYSPAELAVIQRFLADLTDYEA
  soluble on expression in E. coli: not soluble

## MGSDKIHHHHHHMLMNIGKVDNIKIYTLAEDYAGYNSPFWSQHGLSFLIEVESNGIKKRILFDTATYAEPILFNMKLLNINPKSIDMIILSHNHFDHTGGLFGIMKEINKEIPIFAHPNIFKVSFATEPEFMLAGTLNKTLKEDIEKLGGRWVLSRDPIRLMPGIFTLGEIEDEEKINFEKKPTIGLYKLENGRVVLDNVEDEIGLAIVTEKGLIIVSGCSHPGIVSMVKKSIKISGINKVYAVIGGFHLIDADNERIVSTIKALKKLGVKKICTGHCTGFKAENMFMEEFKEDFERLHAGKIIKF
  soluble on expression in E. coli: not soluble

## MTLDVPVNQGHVPPGSVACCLVGVTAVADGIAGHSLSNFGALPPEINSGRMYSGPGSGPLMAAAAAWDGLAAELSSAATGYGAAISELTNMRWWSGPASDSMVAAVLPFVGWLSTTATLAEQAAMQARAAAAAFEAAFAMTVPPPAIAANRTLLMTLVDTNWFGQNTPAIATTESQYAEMWAQDAAAMYGYASAAAPATVLTPFAPPPQTTNATGLVGHATAVAALRGQHSWAAAIPWSDIQKYWMMFLGALATAEGFIYDSGGLTLNALQFVGGMLWSTALAEAGAAEAAAGAGGAAGWSAWSQLGAGPVAASATLAAKIGPMSVPPGWSAPPATPQAQTVARSIPGIRSAAEAAETSVLLRGAPTPGRSRAAHMGRRYGRRLTVMADRPNVG
  soluble on expression in E. coli: not soluble

## MSLKNNEVAFYAMGGLGEIGKNMYCVQFQDEIIVIDCGVLFPEDELLGVDYVIQNYDYLIENKDKIKGIFITHGHEDHIGGLPFFLQKVNAPIYAGPFAMSLIKGKLEEKHLLRNAELHEINEFDEVHFKKLWVSFFRTTHSIPDTLGVAVHTPQGTIVQTGDFKFDLTPVGNLPGPNLQQMAKLGDDGVLLLTSDSTNAERPEFTKSERWVDIHIRRIFERIKGRIIFASFASNVYRLREASDAAIAQGRKIAVFGRSMENAITAGQELGYLNIPKDSLIDQNEINNYPPEKVLIMCTGSQGEPMAALSRIANGTHRQITIQPEDTVVFSSNPIPGNTTSVNALINKLEESGANVIHGYVNNIHTSGHGGQVDEEFMLRLMKPKFFAPVHGEYRMQKIHTKLAEMTGVPKENSFVLANGDVLALTKDSCRVADHIDSVSDVYIDGRDAGDTVGNPEIRERRLLSEEGVVTAIAVVDLKDYQIVAGPDIVSRGFVYMHESQELIKAANHEVFWAILNTFKNHKHIDQRVLNRTIISRLQKLLYDRTGRRPVIIPMVTILNGEGHHHHHH
  soluble on expression in E. coli: soluble

## MRGSHHHHHHGLVPRGSMIRTMLQGKLHRVKVTHADLHYEAGSCAIDQDFLDAAGILENEAIDIWNVTNGKRFSTYAIAAERGSRIISVNGAAAHCASVGDIVIIASFVTMPDEEARTWRPNVAYFEGDNEMKRTAKAIPVQVA
  soluble on expression in E. coli: soluble

## MAHHHHHHMLNVVQATRMSKKQEVKAYGPNVKKGDLVYGVVHIFASFNDTFVHVTDMSGRETYVKVTGGMKVKADRDESSPYAAMMAAQDVVARCKECGINALHVKMRAVGGVRTKSPGPGRPGRPPRARPRRDEDWPHRGCHPDPDRLHPPQGFPPWSPPVRSLRPRVLRTAQQSELTLVTICWFPCVCDLLSFYCREEKKHRPQITEAR
  soluble on expression in E. coli: not soluble

## MPNYKLLYFDARALAEPIRIMFAMLNVPYEDYRVSVEEWSKLKPTTPFGQLPILQVDGEQFGQSMSITRYLARKFGLAGKTAEEEAYADSIVDQYRDFIFFFRQFTSSVFYGSDADHINKVRFEVVEPARDDFLAIINKFLAKSKSGFLVGDSLTWADIVIADNLTSLLKNGFLDFNKEKKLEEFYNKIHSIPEIKNYVATRKDSIV
  soluble on expression in E. coli: not soluble

## MKKLIVASLSLTFMLGGCASMNKEGVGTITGGVVGGLLGSQFGGGSGKVAAAGAGALLGAYLGGQIGKTMDKVDRLEMQRALETAPTGKAVAWSNPDTGYRYTVQPTRTYYNAQQPCREYITKAMIGGKTQQIYGKACRQADGSWRVVNLEHHHHHH
  soluble on expression in E. coli: not soluble
